The source of these data is patent US20240392013A1 (STELEXIS THERAPEUTICS, published 2024).

In experiment [1] the target is T1, IL1RAP on HEK-Blue IL1β / HEK-Blue IL33 reporter cells (UniProt Q9NPH3 21-570, limits assumed).
T1 sequence (looked up): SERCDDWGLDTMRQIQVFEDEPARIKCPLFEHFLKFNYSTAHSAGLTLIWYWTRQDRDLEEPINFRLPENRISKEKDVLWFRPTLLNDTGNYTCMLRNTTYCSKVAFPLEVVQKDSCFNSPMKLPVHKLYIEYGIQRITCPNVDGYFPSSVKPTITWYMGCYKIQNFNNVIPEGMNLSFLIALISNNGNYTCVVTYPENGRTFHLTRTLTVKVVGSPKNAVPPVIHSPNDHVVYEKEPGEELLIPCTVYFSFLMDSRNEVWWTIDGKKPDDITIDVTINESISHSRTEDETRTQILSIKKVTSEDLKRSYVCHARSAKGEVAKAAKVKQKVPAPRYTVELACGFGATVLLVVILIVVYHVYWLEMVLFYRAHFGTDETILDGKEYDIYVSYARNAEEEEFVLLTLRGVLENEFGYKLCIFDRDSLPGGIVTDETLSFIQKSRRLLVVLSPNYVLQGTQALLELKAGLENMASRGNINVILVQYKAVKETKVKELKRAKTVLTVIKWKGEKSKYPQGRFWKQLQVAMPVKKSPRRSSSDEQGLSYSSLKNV
Kind of experiment: cell-based or functional assay.

The target in experiment [2] is T2, recombinant human IL1RAP protein, extracellular domain His-tagged (Sino Biological, Cat #10121-H08H) (human, UniProt Q9NPH3 21-367).
T2 construct: extracellular domain; Bought protein; The Octet analyte is printed as huIL1RAP-His (Sino Biological, lot MB08MA1301) without a catalogue number; also called huIL1RAP-His; hIL1RAP; not shown: His tag
T2 sequence (looked up): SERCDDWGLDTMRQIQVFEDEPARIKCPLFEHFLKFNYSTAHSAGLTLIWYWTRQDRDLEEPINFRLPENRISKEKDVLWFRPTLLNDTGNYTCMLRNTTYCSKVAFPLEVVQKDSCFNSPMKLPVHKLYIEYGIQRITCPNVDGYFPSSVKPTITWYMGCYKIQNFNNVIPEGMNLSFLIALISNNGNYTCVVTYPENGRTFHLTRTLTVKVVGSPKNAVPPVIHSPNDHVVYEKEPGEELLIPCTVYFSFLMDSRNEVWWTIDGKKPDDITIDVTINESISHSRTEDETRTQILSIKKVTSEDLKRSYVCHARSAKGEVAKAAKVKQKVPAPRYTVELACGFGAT
Kind of experiment: cell-free ELISA, human IL1RAP coated at 1 µg/ml. As for the experimental part:
Recombinant human or mouse IL1RAP proteins (Sino Biological, Beijing, China; Cat #10121-H08H and Sino Biological, Cat #52657-M08H respectively) were diluted in PBS, pH 7.4 at concentration of 1 μg/ml, coated on high-binding 384-well clear plates and incubated overnight at 4° C. Following, plates were washed 3× with 0.05% Tween-20 in PBS, pH 7.5 and then blocked with 1% BSA in PBS for 1 hour at room temperature. After 3× washes, wells were incubated with each antibody at the highest concentration of 100 nM followed by seven serial half log dilutions (in 1% BSA and 0.05% Tween-20 in PBS) for 1 hour at room temperature. Plates were then washed 3× and incubated with […] detection antibody (Medna, TX, USA; Cat #D8212, 0.5 μg/ml diluted in 0.02% Tween-20 in PBS). After 5× washes, Supersignal ELISA Pico substrate (Thermofisher, MA, USA; Cat #37069) was applied to wells and chemiluminescent signal was read on Sprectramax L for 200 ms/well. Similarly, detection with specific κ and λ antibodies was conducted to define light chain isotyping.

For experiment [3], the target named is T3, recombinant mouse IL1RAP protein (Sino Biological, Cat #52657-M08H) (mouse, UniProt Q61730 21-359).
T3 construct: Bought protein
T3 sequence (looked up): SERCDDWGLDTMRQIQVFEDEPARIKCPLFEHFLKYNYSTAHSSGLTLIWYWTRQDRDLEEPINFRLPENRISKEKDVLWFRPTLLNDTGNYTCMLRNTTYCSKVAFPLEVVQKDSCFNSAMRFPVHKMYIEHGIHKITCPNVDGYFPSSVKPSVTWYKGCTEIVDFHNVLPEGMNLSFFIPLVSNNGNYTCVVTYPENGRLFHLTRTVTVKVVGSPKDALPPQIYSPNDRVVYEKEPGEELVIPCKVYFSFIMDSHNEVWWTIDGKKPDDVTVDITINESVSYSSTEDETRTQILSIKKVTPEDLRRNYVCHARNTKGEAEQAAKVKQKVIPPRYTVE
The experiment is described as follows: cell-free ELISA, mouse IL1RAP coated; data not shown. The essentials:
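Plates coated overnight at 4 °C with recombinant IL1RAP at 1 μg/ml in PBS pH 7.4, then blocked with 1% BSA. Antibodies incubated 1 h at room temperature from 100 nM in seven half-log dilutions. Bound antibody detected with anti-His HRP and chemiluminescence.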
In general terms: An ELISA detects its analyte on a solid surface through an enzyme-linked reagent.

B1: STLX2012 (antibody, V domains shown)
VH: QVQLLQSGAEVKKPGSSVKVSCKASGGTFSIYAIDWVRQAPGQGLEWMGGIIPIFGTANSAQKFQGRVTITADKSTSTAYMELSSLRSEDTAVYYCARNGATSDAFDMWGQGTMVTVSS
VL: EIVLTQSPGTLSLSPGERATLSCRASLSVSSNYLAWFQQRPGQAPRLLIHGVSRRATGIPDRFSGSGSGTDFTLTISRLEPEDFAVYYCQQYGSSPLTFGGGTKVEIK
notes: Purified from hybridoma of immunized Alivamab mice; intact IgG; captured on anti-mouse IgG Fc sensors in Octet; kappa light chain; also called 74804_12A21B
As a reminder, the EC50 is the concentration that produces a half-maximal response. As to B1, in experiment [1], the “Max % Inhibition at 200 nM, HEK-BlueIL33 NFκB Reporter Assay” value was determined as 95%. The EC50 in experiment [2] is 0.985 nM. Moreover, the binding result in experiment [3] is “no binding (tested: 100 nM)”.

B2: STLX2043 (antibody, V domains shown)
VH: QVQLLQSGAEVKKPGSSVKVSCKASGGTFSIYAIDWVRQAPGQGLEWMGGIIPIFGTENSAQNFQGRITITADKSTNTAYMELSSLRSEDTAVYYCARNGATSDAFDIWGQGTMVTVFS
VL: EIVLTQSPGTLSLSPGERATLSCRASLSVSSNYLAWFQQRPGQAPRLLIYGVSRRATGIPDRFSGSGSGTDFTLTISRLEPEDFAVYYCQQYGSSPLTFGGGTKVEIK
notes: Purified from hybridoma of immunized Alivamab mice; intact IgG; captured on anti-mouse IgG Fc sensors in Octet; kappa light chain; also called 74804_43F04A
With B2, in experiment [1], the “IC50, HEK-BlueIL33 NFκB Reporter Assay” value is 9.62e-09 M (implied; unit not printed) and the “Max % Inhibition at 200 nM, HEK-BlueIL33 NFκB Reporter Assay” value was 85%. Besides, the EC50 in experiment [2] is 1.04 nM. Besides, in experiment [3], the binding result is given as “no binding (tested: 100 nM)”.
